Test results: patent US20200157212A1 (Pfizer, published 2020)

T1: Terbium (Tb) labeled-SNAP tagged ROBO2 expressed on HEK293 cells (Homo sapiens (Human), UniProt Q9HCK4 22-1378, terbium label on the SNAP tag)
T1 construct: also called Tb-labeled ROBO2 cells; ROBO2 expressing cells; not shown: SNAP tag
T1 sequence: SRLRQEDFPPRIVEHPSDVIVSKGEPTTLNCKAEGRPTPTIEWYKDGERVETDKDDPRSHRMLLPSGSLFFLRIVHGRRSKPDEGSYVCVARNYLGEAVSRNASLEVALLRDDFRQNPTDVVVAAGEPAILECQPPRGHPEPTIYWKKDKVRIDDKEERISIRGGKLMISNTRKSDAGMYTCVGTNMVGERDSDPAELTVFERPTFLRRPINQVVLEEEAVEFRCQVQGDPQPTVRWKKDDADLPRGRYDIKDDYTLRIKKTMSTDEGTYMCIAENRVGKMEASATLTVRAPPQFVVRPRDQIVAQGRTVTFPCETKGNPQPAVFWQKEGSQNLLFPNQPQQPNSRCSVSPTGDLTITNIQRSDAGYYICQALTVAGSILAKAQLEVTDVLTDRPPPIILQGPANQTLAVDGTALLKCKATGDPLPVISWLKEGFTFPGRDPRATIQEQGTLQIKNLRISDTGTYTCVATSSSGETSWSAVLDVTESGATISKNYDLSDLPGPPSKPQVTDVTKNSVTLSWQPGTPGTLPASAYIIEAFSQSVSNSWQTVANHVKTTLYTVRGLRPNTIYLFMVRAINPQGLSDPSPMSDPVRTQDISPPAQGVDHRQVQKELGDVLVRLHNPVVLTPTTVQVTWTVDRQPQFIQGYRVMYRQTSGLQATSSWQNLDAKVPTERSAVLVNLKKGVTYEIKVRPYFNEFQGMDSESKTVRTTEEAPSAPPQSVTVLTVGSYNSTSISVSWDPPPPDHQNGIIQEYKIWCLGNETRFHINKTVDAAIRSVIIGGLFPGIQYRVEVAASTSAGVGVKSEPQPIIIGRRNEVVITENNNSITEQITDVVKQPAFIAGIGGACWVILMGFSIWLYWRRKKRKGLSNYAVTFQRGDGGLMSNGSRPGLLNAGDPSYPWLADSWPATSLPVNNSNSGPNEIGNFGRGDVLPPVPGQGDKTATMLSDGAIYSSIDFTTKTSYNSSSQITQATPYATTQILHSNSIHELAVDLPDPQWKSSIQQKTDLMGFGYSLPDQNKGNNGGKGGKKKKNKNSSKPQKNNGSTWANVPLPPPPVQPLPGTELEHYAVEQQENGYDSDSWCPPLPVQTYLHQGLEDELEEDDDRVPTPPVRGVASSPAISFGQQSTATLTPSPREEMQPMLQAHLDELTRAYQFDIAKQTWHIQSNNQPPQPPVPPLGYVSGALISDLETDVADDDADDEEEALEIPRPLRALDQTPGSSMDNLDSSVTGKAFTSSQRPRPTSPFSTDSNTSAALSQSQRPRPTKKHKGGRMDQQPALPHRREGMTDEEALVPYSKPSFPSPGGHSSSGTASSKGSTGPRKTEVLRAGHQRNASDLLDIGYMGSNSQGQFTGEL


Columns and labels:
[1] = target: T1, Terbium (Tb) labeled-SNAP tagged ROBO2 …; assay: HTRF, 5 nM d2-SLIT2-N on Tb-SNAP-ROBO2 HEK293 cells, 1 nM antibody
Outline: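 Tb-SNAP-ROBO2 HEK293 cells incubated 1 hour with 5 nM d2-SLIT2-N, with 1 nM anti-ROBO2 antibody or none (maximal signal); cells alone gave minimum. HTRF read at 665/620 nm; IC50 series used 11-point, 5-fold dilutions from 1500 nM.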

[2] = target: T1, Terbium (Tb) labeled-SNAP tagged ROBO2 …; assay: HTRF competition, competitor d2-SLIT2-N, ROBO2 HEK293 cells
Outline: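 HEK293 cells expressing Tb-labeled SNAP-ROBO2 were incubated 1 hour with 5 nM d2-SLIT2-N plus antibody, read as the 665/620 nm HTRF ratio. Controls were no antibody (maximal) and cells alone (minimal). Screening used 1 nM antibody; IC₅₀ came from 11-point, 5-fold dilutions starting at 1500 nM.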

[3] = target: T2, Human ROBO1 RSK mutant overexpressed on HEK293 cells (human, UniProt Q9Y6N7 26-1651); assay: flow cytometry, Geo MFI ROBO1-RSK/ROBO2-KSR HEK293 cells, 2.5 µg/ml
T2 construct: K137R and R139K already in the entry; also called ROBO1-RSK cells
T2 sequence (Q9Y6N7 other isoform, or with tags, fused parts or gaps mutant limits assumed): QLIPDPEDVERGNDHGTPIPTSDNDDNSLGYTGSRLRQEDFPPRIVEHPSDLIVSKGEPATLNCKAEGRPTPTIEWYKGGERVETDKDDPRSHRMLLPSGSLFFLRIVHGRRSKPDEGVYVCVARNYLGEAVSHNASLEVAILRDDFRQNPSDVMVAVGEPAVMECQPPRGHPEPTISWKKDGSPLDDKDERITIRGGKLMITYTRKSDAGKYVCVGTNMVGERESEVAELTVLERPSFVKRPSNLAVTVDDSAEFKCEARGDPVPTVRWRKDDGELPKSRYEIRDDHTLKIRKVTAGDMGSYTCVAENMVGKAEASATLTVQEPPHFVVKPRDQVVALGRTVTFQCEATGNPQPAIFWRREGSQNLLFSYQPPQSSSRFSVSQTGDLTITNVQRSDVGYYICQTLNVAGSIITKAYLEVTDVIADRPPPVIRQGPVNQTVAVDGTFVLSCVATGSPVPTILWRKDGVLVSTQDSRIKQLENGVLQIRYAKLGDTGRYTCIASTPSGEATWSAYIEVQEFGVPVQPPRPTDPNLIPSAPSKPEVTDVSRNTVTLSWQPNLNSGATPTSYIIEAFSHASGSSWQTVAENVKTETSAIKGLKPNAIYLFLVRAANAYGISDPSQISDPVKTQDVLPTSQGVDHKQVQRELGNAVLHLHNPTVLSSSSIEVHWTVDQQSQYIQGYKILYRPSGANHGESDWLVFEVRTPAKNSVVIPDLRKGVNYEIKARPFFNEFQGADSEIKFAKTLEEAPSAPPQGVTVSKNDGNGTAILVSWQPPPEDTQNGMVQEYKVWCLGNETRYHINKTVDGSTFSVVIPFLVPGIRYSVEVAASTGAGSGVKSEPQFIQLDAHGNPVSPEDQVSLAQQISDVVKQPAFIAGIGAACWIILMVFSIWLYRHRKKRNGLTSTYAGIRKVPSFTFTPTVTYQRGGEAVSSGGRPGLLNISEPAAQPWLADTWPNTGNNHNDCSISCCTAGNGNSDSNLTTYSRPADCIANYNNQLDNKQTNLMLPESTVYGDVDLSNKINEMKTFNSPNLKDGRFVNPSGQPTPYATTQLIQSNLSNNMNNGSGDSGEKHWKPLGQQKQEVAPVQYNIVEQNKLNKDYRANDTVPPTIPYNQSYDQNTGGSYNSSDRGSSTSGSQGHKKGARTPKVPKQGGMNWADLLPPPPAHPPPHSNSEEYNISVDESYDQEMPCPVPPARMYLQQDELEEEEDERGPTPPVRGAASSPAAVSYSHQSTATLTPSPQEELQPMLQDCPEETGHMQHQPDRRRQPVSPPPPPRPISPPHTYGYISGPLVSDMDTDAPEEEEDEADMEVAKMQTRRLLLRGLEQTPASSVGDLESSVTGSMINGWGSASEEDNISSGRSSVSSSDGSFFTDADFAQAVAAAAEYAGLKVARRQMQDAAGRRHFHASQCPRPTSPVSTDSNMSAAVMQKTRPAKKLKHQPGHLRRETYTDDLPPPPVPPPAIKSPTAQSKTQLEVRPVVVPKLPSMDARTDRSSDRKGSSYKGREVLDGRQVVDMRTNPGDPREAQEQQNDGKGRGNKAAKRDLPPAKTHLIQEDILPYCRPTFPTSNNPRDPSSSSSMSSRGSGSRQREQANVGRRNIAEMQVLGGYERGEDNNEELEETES

| HTRF Ratio [1] | IC50 [2] [nM] | Fold Selectivity for RSK/KSR [3] [fold] | Binder |
| --- | --- | --- | --- |
| 13800 | 4.22 |  | 93H2 (antibody, human IgG1, kappa, V domains shown, also called parental 93H2; 93H2 mAb) VH: EVQLVQSGAEVKKPGASVKVSCKASGYTFTGYYMHWVRQAPGQGLEWMGWINPNSGATNFPQKFQGRVTMTRDTSITTAYMDLSRLRSDDTAVYYCARESGDDAFDIWGQGTMVTVSS VL: not shown |
| 3050 | 0.057 | 1.5 | Abcs55 (antibody, human IgG1, kappa, V domains shown, chain-shuffled IgG) VH: EVQLVQSGAEVKKPGASVKVSCKASGYTFTGYYMHWVRQAPGQGLEWMGWINPKDGDTEFPQKFQGRVTMTRDTSITTAYMDLSRLRSDDTAVYYCARESGDDAFDIWGQGTMVTVSS VL: DIVMTQSPSSLSASVGDRVTITCRASQSISSYLNWYQQKPGKAPKLLIYAASSLQYGVPSRFSGSGSGTDFTLTISSLQPEDFATYYCQQSYSTSFGGGTKVEIKR |
| 3710 | 0.037 | > 100 | CTIR2-14 (antibody, human IgG1, kappa, V domains shown, CDR-shuffled IgG) VH: EVQLVQSGAEVKKPGASVKVSCKASGYTFRGYAMHWVRQAPGQGLEWMGWIDPRTGLTKFPQKFQGRVTMTRDTSITTAYMDLSRLRSDDTAVYYCARESGDDAFDIWGQGTMVTVSS VL: DIVMTQSPSSLSASVGDRVTITCRASQKISSYLNWYQQKPGKAPKLLIYAASSLQYGVPSRFSGSGSGTDFTLTISSLQPEDFATYYCQQSLELGFGGGTKVEIKR |
| 3730 | 0.056 | 66.5 | CTIR2-16 (antibody, human IgG1, kappa, V domains shown, CDR-shuffled IgG) VH: EVQLVQSGAEVKKPGASVKVSCKASGYTFRGYAMHWVRQAPGQGLEWMGWIDPRTGLTKFPQKFQGRVTMTRDTSITTAYMDLSRLRSDDTAVYYCARESGDDAFDIWGQGTMVTVSS VL: DIVMTQSPSSLSASVGDRVTITCRASQKISSYLNWYQQKPGKAPKLLIYAASSLQYGVPSRFSGSGSGTDFTLTISSLQPEDFATYYCQQSVGLFFGGGTKVEIKR |
| 3750 | 0.05 | > 100 | CTIR2-15 (antibody, human IgG1, kappa, V domains shown, CDR-shuffled IgG) VH: EVQLVQSGAEVKKPGASVKVSCKASGYTFRGYAMHWVRQAPGQGLEWMGWIDPRTGLTKFPQKFQGRVTMTRDTSITTAYMDLSRLRSDDTAVYYCARESGDDAFDIWGQGTMVTVSS VL: DIVMTQSPSSLSASVGDRVTITCRASQKISSYLNWYQQKPGKAPKLLIYAASSLQYGVPSRFSGSGSGTDFTLTISSLQPEDFATYYCQQSVGLSFGGGTKVEIKR |
| 3970 | 0.04 | 7 | Abcs20 (antibody, human IgG1, kappa, V domains shown, chain-shuffled IgG) VH: EVQLVQSGAEVKKPGASVKVSCKASGYTFTGYYMHWVRQAPGQGLEWMGWINPKNGDTEFPQKFQGRVTMTRDTSITTAYMDLSRLRSDDTAVYYCARESGDDAFDIWGQGTMVTVSS VL: DIVMTQSPSSLSASVGDRVTITCRASQSISSYLNWYQQKPGKAPKLLIYAASSLQSGVPSRFSGSGSGTDFTLTISSLQPEDFATYYCQQSVGLSFGGGTKVEIKR |
| 3390 | 0.048 | 9.3 | Abcs40 (antibody, human IgG1, kappa, V domains shown, chain-shuffled IgG) VH: EVQLVQSGAEVKKPGASVKVSCKASGYTFTGYYMHWVRQAPGQGLEWMGWINPKDGDTEFPQKFQGRVTMTRDTSITTAYMDLSRLRSDDTAVYYCARESGDDAFDIWGQGTMVTVSS VL: DIVMTQSPSSLSASVGDRVTITCRASQSISSYLNWYQQKPGKAPKLLIYAASSLQSGVPSRFSGSGSGTDFTLTISSLQPEDFATYYCQQSVGLFFGGGTKVEIKR |
| 3880 | 0.042 | 8.1 | Abcs25 (antibody, human IgG1, kappa, V domains shown, chain-shuffled IgG) VH: EVQLVQSGAEVKKPGASVKVSCKASGYTFTGYYMHWVRQAPGQGLEWMGWINPKDGDTEFPQKFQGRVTMTRDTSITTAYMDLSRLRSDDTAVYYCARESGDDAFDIWGQGTMVTVSS VL: DIVMTQSPSSLSASVGDRVTITCRASQSISSYLNWYQQKPGKAPKLLIYAASSLQSGVPSRFSGSGSGTDFTLTISSLQPEDFATYYCQQSVGLSFGGGTKVEIKR |

| Binder | HTRF Ratio [1] | IC50 [2] [nM] | Fold Selectivity for RSK/KSR [3] [fold] |
| --- | --- | --- | --- |
| Abcs35 (antibody, human IgG1, kappa, fully human IgG1; VH of Ab96 with VL of Ab123) heavy: EVQLVQSGAEVKKPGASVKVSCKASGYTFTGYYMHWVRQAPGQGLEWMGWINPKNGDTEFPQKFQGRVTMTRDTSITTAYMDLSRLRSDDTAVYYCARESGDDAFDIWGQGTMVTVSSASTKGPSVFPLAPSSKSTSGGTAALGCLVKDYFPEPVTVSWNSGALTSGVHTFPAVLQSSGLYSLSSVVTVPSSSLGTQTYICNVNHKPSNTKVDKKVEPKSCDKTHTCPPCPAPEAAGAPSVFLFPPKPKDTLMISRTPEVTCVVVDVSHEDPEVKFNWYVDGVEVHNAKTKPREEQYNSTYRVVSVLTVLHQDWLNGKEYKCKVSNKALPAPIEKTISKAKGQPREPQVYTLPPSREEMTKNQVSLTCLVKGFYPSDIAVEWESNGQPENNYKTTPPVLDSDGSFFLYSKLTVDKSRWQQGNVFSCSVMHEALHNHYTQKSLSLSPGK light: DIVMTQSPSSLSASVGDRVTITCRASQSISSYLNWYQQKPGKAPKLLIYAASSLQSGVPSRFSGSGSGTDFTLTISSLQPEDFATYYCQQSVGLFFGGGTKVEIKRTVAAPSVFIFPPSDEQLKSGTASVVCLLNNFYPREAKVQWKVDNALQSGNSQESVTEQDSKDSTYSLSSTLTLSKADYEKHKVYACEVTHQGLSSPVTKSFNRGEC | 3940 | 0.041 | 6.6 |
